Reference: the nanobody polyreactivity screen of Harvey et al. (2022)

Experiment: yeast display, Sf9 membrane polyspecificity reagent, FACS + sequencing; frameworks hold sequencing errors
In short: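 A nanobody's polyreactivity label depends on the gate it was sorted from. Yeast display cells were stained with 10% biotinylated, detergent-solubilized Sf9 membrane reagent for 1 hour at 4 °C, enriched on streptavidin microbeads and sorted by FACS. The low and high (top ~1%) gates were set on anti-HA fluorescence for expression and streptavidin fluorescence for reagent binding.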

Row | Sequence | polyreactivity (PSR sort gate)
1 | QVQLVESGGGLVQAGGSLRLSCAASGRIFTYYTMGWYRRAPGKEREFVAAISWSGTSTYYADSVKGRFTISRDNAKNTVYLQMNSLKPEETAVFNCAARNWYSRYDYWGQGTQVTVSS | high polyreactivity
2 | QVQLVESGGGLVQAGGSLRLSCAASGRIFYYYVMGWYRQAPGKEREFVAAISWSASNTYYADSVKGRFTISRDNAKNTVYLQMNSLKPEDTAVYYCAADTLWLDWQGYDYWGQGTQVTVSS | low polyreactivity
3 | QVQLVESGGGLVQAGGSLRLSCAASVRTFLYNAMGWYRQAPGKERELVASITTSGGSTYYADSVKGRFTISRDNAKNTVYLQMNSLKPEDTAVYYCAAGLPKWYDYGRLVKYNYWGQGTQVTVSS | low polyreactivity
4 | QVQLVESGGGLVQAGGSLRLSCAASGSTFSDYAMGWYRQAPGKERELVAGITGGGGTYYADSVKGRFTISRDNAKNTVYLQMNSLKPEDTAVYYCAAGRRHGFGYWGQGTQVTVSS | low polyreactivity
5 | QVQLVESGGGLVQAGGSLRLSCAASGSTFVLDDMGWYRQAPGKERELDAAISYSGDSTNYAASVKGRFTISRDNAKNTVYLQMNSLKPEDTAVYYCNARQRTYYRTHRIRHKGNGYWGQGTQVTVSS | low polyreactivity
6 | QVQLVESGGGLVQAGGSLRLSCAASGIIFQNYDMGWYRQAPGKARELVAAITGSGGSTYYADSVKGRFTISRDNAKNTVYLQMNSLKPEDTAVYYCNAVWEYYGKSDYWGQGTQVTVSS | low polyreactivity
7 | QVQLVESGGGLVQAGGSLRLSCAASGYTFGSYAMGWYRQAPGKERELVAAISGGGSTNYADSVKGRFTISRDNAKNTVYLQMNSLKPEDTAVYYCAADIRWGQGTQVTVSS | low polyreactivity
8 | QVQLVESGGGLVQAGGSLRLSCAASGITFYFNAMGWYRQAPGKEREMVAAISWPGGSTYYADSVKGRFTISRDNAKNTVYLQMNRLKPEDTAVYYCAAEAYFELSGGGLEYGYDYWGQGTQVTVSS | high polyreactivity
9 | QVQLVESGGGLVQAGGSLRLSCAASGLTFSLYAMGWYGQAPGKEREFVAAISSSGGSTYYADSVKGRFTISRDNAKNTVYLQMNSLKPEDTAVYYCNVRRKSRMGYWGQGTQVTVSS | high polyreactivity
10 | QVQLVESGGGLVQAGGSLRLSCAASGSILKPYAMGWYRQAPGKERELVARISSSGGRTYYADSVKGRFTISRDNAKNTFYFKMNSLKPEDTAVYYFAAAIVSYGRNDYWGQGTQVTVSS | high polyreactivity
11 | QVQLVESGGGLVQAGGSLRLSCAASGFIFGYYAMGWYRQAPGKERELVAAISGDAGRTYYADSVKGRFTISRDNAKNTVYLQMNSLKAEDTAVYYCAAADTYKMDYWGQGTQVTVSS | low polyreactivity
12 | QVQLVESGGGLVQAGGSLRLSCAASGSTFRKNAMGWYRQAPGKERELVASISISGGRTNYADSVKGRFTISRDNAKNTVYLQMNSLKPEDTAVYYCAAGYPWYQLPRPLEYYYWGQGTQVTVSS | high polyreactivity
13 | QVQLVESGGGLVQAGGTLRLSCAASGSTFTGNAMGWYRQAPGKERELVAAITIGGSRTYYADSVKGRFTISRDNAKNTVYLQMNSLKPEDTAVYYCAATSRGTDYWGQGTQVTVSS | high polyreactivity
14 | QVQLVESGGGLVQAGGSLRLSSAASGSTIRTNAMGWYRQAPGKATELVAAISKSGGRTYYADSVKGRFTISRDNAKNTVYFQMNSLKPEDTAVYYCNVPRDVVPKVRAHDYWGQGTQVTVSS | high polyreactivity
15 | QVQLVESGGGLVQAGGSLRLSCAASGFTFNYYTMGWYRQAPGKERELVAAISGSGVSTYYADSVKGRFTISRDNAKNTVYLQMNSLKPEDTAVYYCNKLFGIYWGQGTQVTVSS | high polyreactivity
16 | QVQLVESGGGLVQAGGSLRLSCAASGFTFSYNAMGWYRQAPGKERELVAGISYGGGNTFYADSVKGRFTISRDNAKNTVYLQMNSLKPEDTAVYDCAAVNKSGTYVEYDYWGQGTQVTVSS | low polyreactivity
17 | QVQLVESGGLIVQAGGSLRLSCAASRSTSRYSMGWYRQAPGKERELDAAITRSCGTTYYADSVKGRFTISRDNAKNSVYLQMNSLKPEDTAVYYCATSDRQVKDDYWGQGTQVTVSS | low polyreactivity
18 | QVQLVESGGGLVQAGGSLRLSCAASGFIFPGNTMGWYRQAPGKERELVAAITRSGASTYYADSVKGRFTISRDNAKNTVYLQMNSLKPEDTAVYYCAERYYYGLRYPDYYYWGQGTQVTVSS | high polyreactivity
19 | QVQLVESGGGLVQAGGSLRLSCAASGRILYTYAMGWYRQAPGKERELVASIRSSGGITYYADSVKGRFTISRDNAKNTVYLQMNSLKPEDTAVYYCNAPYLVGTGPNGEYDYWGQGTEVTVSS | high polyreactivity
20 | QVQLVESGGGLVQAGGSLRLSCAASGRIFRGYTMGWYRQAPGKEREFVAAITANGGRTYYADSVKGRFTISRDNAKNTVYLKMNSLKPEDTAVYYCNARTYTYRGSFDYWVQGTQVTVSS | high polyreactivity
21 | QVQLLESGGGLVQAGGSLRLSCAASGSTFYCYTMGWYRQAPGKERELVARISSSGSTNYADSVKGRFTISRDNAKNTVYLQMNSLKPEDTAVYYCNKDWIYRGYDYWGQGTQVTVSS | high polyreactivity
22 | QVQRVESGGGLVQEGGSLSLSCAASGSTYKNAMGWYRQAPGKERELVAAITWSGGTTYYADSVKGRFTISRDNAKNTVYLQINSLKPEDTAVYYCAAEYRWYSRYFNYWGQGTQVTVSS | high polyreactivity

Row | Sequence | polyreactivity (PSR sort gate)
23 | QVQLHESGGGLVQAGGGLRLSCAASGSISSTGFMGWYRQAPGKEREPVAAIAPGTTTYYADSVKGRFTISRDNAINTVYLQMNSLRPEDTAVYYCAVFTDNRVAFLYWGQGTQVTVSS | low polyreactivity
24 | QVQLVESGGGLVQAGGSLRLSCAAYGSTFKPYAMGRYRQAPGKERELVADITGGGSTNYADSVKGRFTISRDNAKNTVYLQMNSLKPEDTAVYYCNADPVRSTYSYDYWGQGTQVTVSS | low polyreactivity
25 | QVQLVESGGGLVQAGGSLRLSCAASGRIFWDNAMGWYRQAPGKERELVAAISDSVVITYYADSVKGRFTISRDNAKNTVYLQMNSLKPEDTAVYYCNTDARYDEYDEFDYWGQGTQVTVSS | low polyreactivity
26 | QVQLVESGGGLVQAGGSLRLSCAASGSTFGTNAMGRYRQAPGKERELVAVITFSGGSTYYADSVKGRFTISRDNAKNTVYLQMNSLKPEDTAVYYCAKDGFITFVYDHDYWGQGTQVTVSS | low polyreactivity
27 | QVQLVESGGGLVQAGGSLRLSCAASGFIFLGNAMGWYRPAPGKERDLVAAISSGGSTYADSVKGRFTISRDNAKYTVYLQMNSLKPEDTAVYYCAVDRAFRAQNYHEYDYWGQGTQVTVSS | low polyreactivity
28 | QVQLVESGGGLVQAGGSLRLSCAASGIIFDWYTMGWYRQAPGKERELVAAISWRGGRTYYADSVKGRFTISRDNAKNTVYLQMNSLKPEDTAVYYCAAEAPVQPFYVFNTGIYELDYWGQGTQVTVSS | low polyreactivity
29 | QVQLVESGGGLVQAGGSLRLSCAPSGSTFTHNALGWYRQAPGKERELVAAINNRGGTTYYADSVKGRFTISRDNAKNTVLLQMNSLKPEDIAVYYCNARYHYGRYGYWGQGTQVTVSS | high polyreactivity
30 | QVQLVESGGGLVQAGGSLRLSCAASGNTFGNYGMGWYRQAPGKEREFVAAITSRGTSTYYADSVKGRFTISRDNAKYTVYLQMNSLKPEDTAVYYCNARPRYKYPRYDYWGQGTQVTVSS | high polyreactivity
31 | QVHLVESGGCLVQAGGSLRLSCSASGSIFGWYAMGWYRQAPGKEREFVAAISYSGGSTYYADSVKGRFTNSRDIAKITVYLQINSLKPEDTAVYYCNARPYWYFPYRVPEGYDYWGQGTQVTVSS | high polyreactivity
32 | QVQIVESGAGLVQPGGSLRLSCAASGRTFPLYAMGWYRPAPGKEREFVAAITVSGVSTSYADSVKGRFTISRDNAKNTVYLQMNSLKPEDTAVYYCAADYYIWTYWDVYYWGQGTQVTVSS | high polyreactivity
33 | QVQLVESGGGLVQPGGSLRLSCAASGSIFPYYAKGWYRKAPGKERELVADITSSGGSTYYADSVMGRFTISRDNAKNTVYLQMNSLKPEDTAVYYCAADGAVVSSSRKFGYWGQGTQVTVSS | low polyreactivity
34 | QVQLVESGGGLVQAGGSLRLSCAASGSIFGFYAMGWYRQAPGKERELVASISSSGDSTYYADSVKGRFTISRDNAKNTVYLQMNSLKPEDTAVYYCAAVVYDIYGYEFDYWGQGTQVTVSS | low polyreactivity
35 | QVQLVESGGGLVQAGGSLRLSCAASGRTFTIYAMGWYRQAPGKERELVAGITSAGRTYYADSVKGRFTISRDNAKNTVYSQMNSLNPEDTAVDYCAASGSYAIVWGDQYYGYYYWGQGTQVTVSS | high polyreactivity
36 | QVQLVESGGGLVQAGGSLRLSCAASGSTFTVNAMGWYRQAPGKERELVAAISWRGGTTYYADSVKGRFTISRDNAKNTVYLQMNSLKPEDTAVYYCAATSYRRSGRYYYWGQGTQVTVSS | high polyreactivity
37 | QVQLVESGGGIVQAGGSLRLSCAASGRNFGPYTMGWYRQAPGKERELVATISYSGSTTYYSDSVKGRFTISRDNAKNTVYLQMNSLKPEDTAVYYCNAQYYVFITFDYWGQGTKVTVSS | high polyreactivity
38 | QVQLVESGGGLVQAGGSLRLSCAASGFTFYYYAMGWSRQAPGKERELVAAISSAGGRTYYADSVKGRFTISRDNAKNTVYLQMNSLKPEDTAVYYCAATIKAYPTPLLGDYWGQGTQVTVSS | high polyreactivity
39 | QVQLVESDGGLDQAGGSLRLSCPASGIIFGYYVMGRYRQAPGKERELVASITSGGSTNYADSVKGRFTISRDNAKNTVYLQMNSLKPEDTAVYYCAAEERTDTIPGWRYPHDYWGQGTQVTVSS | low polyreactivity
40 | QVQLVESGGGLVQAGGSLRLSCAASGSTFLNYAMGWYRQAPGKERELVAAISFSGGRTYYADSVKGRFTISRDNAKNTVYLQMNSLKPEDTAVYYCAAGGWRGHYYWGQGTQVTVSS | high polyreactivity
41 | QVQLVESGGGLVQAGGTLRLSCAASGRILPRNAMGWSRQAPGKERELVAGISSDGSTNYADSVKGRFTISRDNAKNSVYLQMNILKPEDTAVYYCAADGVYDPYVYGYWGQGTQVTVSS | low polyreactivity
42 | QVQLVESRGGLVQAGGSLRLSCAASGRIFDVYAMVWYRQAPGKERELVAAITWSGTSTYYADSVKGRFTISRDNAKNTVYVQMNSLKPEDTAVYYCAAEVAYTDTEYFWYYYWGQGTQVTVSS | high polyreactivity
43 | QVQLVESGGGLVQAGGSLRLSCAASGRTLSRYTMGWYIQAPGKERELVAGITRSGGSTYYPDSEKGRFTISRDNAKNTVYLQMNSLKPEDTAVYYCAARWHFLTSSRFDYWGQGTQVTVSS | high polyreactivity
